These are literature values, as cited in article PMC9782320.

This data set concerns the target plasmin (Homo sapiens) (UniProt P00747).
Chain of UniProt P00747 (P00747 581-810): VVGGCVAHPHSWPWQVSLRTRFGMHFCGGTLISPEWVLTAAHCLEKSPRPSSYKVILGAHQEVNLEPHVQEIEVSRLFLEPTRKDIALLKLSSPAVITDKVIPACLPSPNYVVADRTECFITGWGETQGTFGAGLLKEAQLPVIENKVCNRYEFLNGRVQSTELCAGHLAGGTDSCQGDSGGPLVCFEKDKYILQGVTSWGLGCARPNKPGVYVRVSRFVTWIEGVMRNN

Regarding staphylokinase (from UniProt P68801), the Kd was 10 nM.
